Measurements from PMC9352680, “A comprehensive thermodynamic model for RNA binding by the Saccharomyces cerevisiae Pumilio protein PUF4”.
Substitutions are numbered along the chain they refer to. Names and notes keep the numbering of the source.

T1: PUF4 RNA-binding domain (Saccharomyces cerevisiae, UniProt P25339 537-888)
T1 sequence: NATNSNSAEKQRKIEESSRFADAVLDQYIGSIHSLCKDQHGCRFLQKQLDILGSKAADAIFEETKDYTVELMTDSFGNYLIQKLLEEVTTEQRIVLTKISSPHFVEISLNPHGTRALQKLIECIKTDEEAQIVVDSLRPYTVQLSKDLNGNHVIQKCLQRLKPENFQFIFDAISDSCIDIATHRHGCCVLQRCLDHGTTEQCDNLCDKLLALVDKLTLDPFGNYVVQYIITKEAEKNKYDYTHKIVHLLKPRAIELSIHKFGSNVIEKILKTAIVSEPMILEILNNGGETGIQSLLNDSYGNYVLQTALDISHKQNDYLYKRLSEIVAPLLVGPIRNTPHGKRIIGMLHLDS

B1: Ib_S1_P5E.1_K5.1_C5.1_H5.1_A5.1_[T6C]_F5.1_[T9G]_T5.1 (ssRNA)
RNA: UCUCUUUGUAUCAUGAUCUCUU
B2: Ia_S1_P5E.1_K5.1_C5.1_H5.1_[A4T]_A5.1_F5.1_T5.1 (ssRNA)
RNA: UCUCUUUGUUUUAUUAUCUCUU
B3: Ib_S1_P5E.1_K5.1_C5.1_H5.1_A5.1_[T6C]_F5.1_[T9A]_T5.1 (ssRNA)
RNA: UCUCUUUGUAUCAUAAUCUCUU
B4: Ic_S1_P5E.1_K5.1_C5.1_H5.1_A5.1_[T6A]_F5.1_[T9C]_T5.1 (ssRNA)
RNA: UCUCUUUGUAUAAUCAUCUCUU
B5: Ib_S1_P5E.1_K5.1_C5.1_H5.1_A5.1_[T6A]_F5.1_[T9A]_T5.1 (ssRNA)
RNA: UCUCUUUGUAUAAUAAUCUCUU
B6: Ib_S1_P5E.1_K5.1_C5.1_H5.1_A5.1_[T6C]_F5.1_[T9C]_T5.1 (ssRNA)
RNA: UCUCUUUGUAUCAUCAUCUCUU
B7: Id_ii_S2_P5E.4_K5.3_C5.2_[C-2T]_H5.3_A5.1_F5.1_T5.2_[A12C] (ssRNA)
RNA: UUUGAUUAAUAUGAUAUCGUUCUUUCUUUACACUUAUUAUCUUCUUUCUCGAUAUCAUAUUAAUCUUU
B8: Id_ii_S2_P5E.4_K5.3_C5.2_[T-1C]_H5.3_A5.1_F5.1_T5.2_[A12T] (ssRNA)
RNA: B7 RNA with U28C, U29C, C41U
B9: Id_ii_S2_P5E.4_K5.3_C5.2_[T-1G]_H5.3_A5.1_F5.1_T5.2_[T11C]_[A12T] (ssRNA)
RNA: B7 RNA with U28C, U29G, U40C, C41U
B10: Id_ii_S2_P5E.4_K5.3_C5.2_[C-2A]_[T-1A]_H5.3_A5.1_F5.1_T5.2 (ssRNA)
RNA: B7 RNA with U28A, U29A, C41A
B11: Id_ii_S2_P5E.4_K5.3_C5.2_[C-2A]_[T-1C]_H5.3_A5.1_F5.1_T5.2_[T11C] (ssRNA)
RNA: B7 RNA with U28A, U29C, U40C, C41A
B12: Id_ii_S2_P5E.4_K5.3_C5.2_[C-2A]_[T-1A]_H5.3_A5.1_F5.1_T5.2_[T11C] (ssRNA)
RNA: B7 RNA with U28A, U29A, U40C, C41A
B13: Id_ii_S2_P5E.4_K5.3_C5.2_[C-2A]_[T-1C]_H5.3_A5.1_F5.1_T5.2_[T11A] (ssRNA)
RNA: B7 RNA with U28A, U29C, U40A, C41A
B14: Id_ii_S2_P5E.4_K5.3_C5.2_[C-2A]_H5.3_A5.1_F5.1_T5.2_[T11A] (ssRNA)
RNA: B7 RNA with U28A, U40A, C41A
B15: Id_ii_S2_P5E.4_K5.3_C5.2_[T-1G]_H5.3_A5.1_F5.1_T5.2_[T11A]_[A12C] (ssRNA)
RNA: B7 RNA with U28C, U29G, U40A
B16: Id_ii_S2_P5E.4_K5.3_C5.2_[T-1A]_H5.3_A5.1_F5.1_T5.2_[T11C]_[A12C] (ssRNA)
RNA: B7 RNA with U28C, U29A, U40C
B17: Id_ii_S2_P5E.4_K5.3_C5.2_[C-2A]_[T-1C]_H5.3_A5.1_F5.1_T5.2 (ssRNA)
RNA: B7 RNA with U28A, U29C, C41A
B18: Id_ii_S2_P5E.4_K5.3_C5.2_[C-2A]_[T-1A]_H5.3_A5.1_F5.1_T5.2_[T11C]_[A12C] (ssRNA)
RNA: B7 RNA with U28A, U29A, U40C
B19: Id_ii_S2_P5E.4_K5.3_C5.2_[T-1C]_H5.3_A5.1_F5.1_T5.2_[T11C]_[A12G] (ssRNA)
RNA: B7 RNA with U28C, U29C, U40C, C41G
B20: Id_ii_S2_P5E.4_K5.3_C5.2_[C-2T]_H5.3_A5.1_F5.1_T5.2_[A12T] (ssRNA)
RNA: B7 RNA with C41U
B21: Id_ii_S2_P5E.4_K5.3_C5.2_[T-1A]_H5.3_A5.1_F5.1_T5.2_[A12C] (ssRNA)
RNA: B7 RNA with U28C, U29A
B22: Id_ii_S2_P5E.4_K5.3_C5.2_[C-2A]_[T-1C]_H5.3_A5.1_F5.1_T5.2_[A12C] (ssRNA)
RNA: B7 RNA with U28A, U29C
B23: Id_ii_S2_P5E.4_K5.3_C5.2_[C-2A]_H5.3_A5.1_F5.1_T5.2 (ssRNA)
RNA: B7 RNA with U28A, C41A
B24: Id_ii_S2_P5E.4_K5.3_C5.2_[T-1A]_H5.3_A5.1_F5.1_T5.2_[T11C]_[A12G] (ssRNA)
RNA: B7 RNA with U28C, U29A, U40C, C41G
B25: Id_ii_S2_P5E.4_K5.3_C5.2_[C-2A]_H5.3_A5.1_F5.1_T5.2_[T11C]_[A12T] (ssRNA)
RNA: B7 RNA with U28A, U40C, C41U
B26: Id_ii_S2_P5E.4_K5.3_C5.2_[C-2A]_[T-1A]_H5.3_A5.1_F5.1_T5.2_[T11A] (ssRNA)
RNA: B7 RNA with U28A, U29A, U40A, C41A
B27: Id_ii_S2_P5E.4_K5.3_C5.2_[C-2A]_[T-1A]_H5.3_A5.1_F5.1_T5.2_[T11C]_[A12G] (ssRNA)
RNA: B7 RNA with U28A, U29A, U40C, C41G
B28: Id_ii_S2_P5E.4_K5.3_C5.2_[C-2A]_H5.3_A5.1_F5.1_T5.2_[A12G] (ssRNA)
RNA: B7 RNA with U28A, C41G
B29: Id_ii_S2_P5E.4_K5.3_C5.2_[T-1A]_H5.3_A5.1_F5.1_T5.2_[A12T] (ssRNA)
RNA: B7 RNA with U28C, U29A, C41U

target: T1, PUF4 RNA-binding domain; assay: Mg; RNA-MaP; 20 mM Na-HEPES pH 7.4, 30 mM KOAc, 0.75 mM MgCl2, 0.1% Tween-20, 5% glycerol, 0.1 mg/mL BSA, 2 mM DTT; 25 C; 0.0125-409.6 nM protein; conditions: tags: N-His6-TEV cleaved; C-SNAP kept, Cy3B-labelled; label: tethered on chip by stalled RNA polymerase

| Binder | Kd |
| --- | --- |
| B1 | 24.9 nM |
| B2 | 24.7 nM |
| B3 | 2.4 nM |
| B4 | 19.7 nM |
| B5 | 1.68 nM |
| B6 | 15.5 nM |
| B7 | 1890 nM |
| B8 | 1720 nM |
| B9 | > 2300 nM |
| B10 | 875 nM |
| B11 | > 2300 nM |
| B12 | > 2300 nM |
| B13 | > 2300 nM |
| B14 | 208 nM |
| B15 | > 2300 nM |
| B16 | > 2300 nM |
| B17 | 754 nM |
| B18 | > 2300 nM |
| B19 | > 2300 nM |
| B20 | 1990 nM |
| B21 | > 2300 nM |
| B22 | > 2300 nM |
| B23 | 674 nM |
| B24 | > 2300 nM |
| B25 | 117 nM |
| B26 | > 2300 nM |
| B27 | > 2300 nM |
| B28 | 1310 nM |
| B29 | > 2300 nM |
